# According to patent US20020165123A1 (published 2002):
# Bridges are numbered along the chain shown (N, C = ends). Where no end group is shown, it is not given here.
# Molecular target: T1, CXC chemokine receptor 4 (CXCR4) (UniProt P61073 1-352, limits assumed)
# Assay: cell-based or functional assay
# T1 sequence (P61073 whole entry): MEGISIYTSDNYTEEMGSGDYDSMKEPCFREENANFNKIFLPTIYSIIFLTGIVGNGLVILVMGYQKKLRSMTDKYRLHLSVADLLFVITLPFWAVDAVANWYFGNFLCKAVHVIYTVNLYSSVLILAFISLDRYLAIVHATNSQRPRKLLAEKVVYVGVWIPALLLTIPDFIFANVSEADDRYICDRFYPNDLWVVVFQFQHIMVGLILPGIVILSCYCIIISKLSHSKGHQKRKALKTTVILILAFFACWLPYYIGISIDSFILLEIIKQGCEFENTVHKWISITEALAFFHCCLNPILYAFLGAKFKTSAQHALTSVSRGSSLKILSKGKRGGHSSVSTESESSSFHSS
row,Binder,"EC50 of [Ca2+]i mobilization, fura-2,AM loaded THP-1 cells"
1,KPVSLSYRCPCRFFGGGGLKWIQEYLEKALN-NH2 (lactam 24-28; cysteine pairing not given here) [SDF-1(1-14)-(G)4-SDF-1(55-67)-E24/K28-cyclic amide],106 nM
2,KPVSLSYRCPCRFFGGGGLKWIQEYLEKALN-NH2 (lactam 20-24; cysteine pairing not given here) [SDF-1(1-14)-(G)4-SDF-1(55-67)-K20/E24-cyclic amide],148 nM
3,KPVSLSYRCPCRFFGGGGLKWIQEYLEKALN-OH (cysteine pairing not given here) [SDF-1(1-14)-(G)4-SDF-1(55-67) acid],188 nM

# Molecular target: T1, CXC chemokine receptor 4 (CXCR4)
# Assay: competition against 4 nM 125I-SDF-1 on CEM cells (FIG. 2B)
# Procedure: SDF-1 and the indicated analogs (competing ligands, described in Examples) were added at the concentrations illustrated in the presence of 4 nM ¹²⁵I-SDF-1. CEM cells were assessed for ¹²⁵I-SDF-1 binding following 2 hr of incubation. The results are expressed as percentages of the maximal specific binding that was determined without competing ligand, and are the mean of three independent experiments.
# A competitive dose response for binding to the SDF-1 receptor by native SDF-1 and the CXCR4 agonists against ¹²⁵I-SDF-1 is shown in FIGS. 2A and 2B respectively. A concentration-dependent inhibition of ¹²⁵I-SDF-1 is illustrated in FIG. 2A, indicating the affinity of SDF-1 for the receptor. […] SDF-1 and the indicated analogs (competing ligands) were added at the concentrations illustrated in the presence of 4 nM ¹²⁵I-SDF-1. CEM cells were assessed for ¹²⁵I-SDF-1 binding following 2 hr of incubation. The results are expressed as percentages of the maximal specific binding that was determined without competing ligand, and are the mean of three independent experiments. The inhibition of ¹²⁵I-SDF-1 by SDF-1 and the SDF-1 analogs is indicative of CXCR4 receptor binding. The compounds illustrated in the figure are as follows: SDF-1(1-14)-(G)₄-SDF-1(55-67)-K20/E24-cyclic amide (CTCE0021), SDF-1(1-14)-(G)₄-SDF-1(55-67)-E24/K28-cyclic amide (CTCE0022), SDF-1(1-9)₂-C9/C9-cysteine dimer (CTCE9901), SDF-1(1-17) (CTCE9902), SDF-1(1-8)₂-lysine bridge dimer (CTCE9904) and SDF-1(1-14)-(G)₄-SDF-1(55-67) amide (CTCE0017).
row,Binder,binding result
1,"KPVSLSYRC (also: homodimer via disulphide between Cys9 of the two chains, Homodimer of SDF-1(1-9), with free acid C-termini; also called CTCE9901) [SDF-1(1-9)2-C9/C9-cysteine dimer]",binds
2,"KPVSLSYRCPCRFFESH (Linear peptide, free acid; also called CTCE9902) [SDF-1(1-17)]",binds
3,"KPVSLSYRK-NH2 (also: dimer: two chains' Arg8 amide-linked to one bridging lysine (alpha and epsilon amino groups), Two SDF-1(1-8) chains joined through one lysine amide; also called CTCE9904) [SDF-1(1-8)2-lysine bridge dimer]",binds
